Experimental data as given in the supplement of paper PMC10567573.

B1: UFD1L (parent)
chain: EAGGRFVAFSGEGQSLRKKGRKP
B2: MMP1 (parent)
chain: YTPDLPRADVDHAIEKAFQLWSNV
B3: KCNK9 (parent)
chain: DVPDLQSVCSCTCYRSQDYGGRSV

Variants of: B1
Assay: protein stability index of a GFP-peptide fusion (GPS, HEK-293T) (PSI 1-6); higher = more stable
Conditions: c terminus: native
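Note: lentivirally expressed fusions sorted by FACS into six bins by GFP to DsRed ratio, PSI derived from sequencing read proportions per bin multiplied by bin number.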

Protein stability index of substitutions, site by site:
F9: V 2.02 | Q 2.25 | W 2.96 | E 4.02 | I 1.19 | A 3.29 | R 3.73 | H 1 | K 1.75 | T 2.28 | P 3.64
G11: A 1.26 | L 1.85 | P 2.21 | S 1.54 | N 1.82 | C 2.52
G4: N 1 | D 2.5 | Q 1.92 | K 2.58 | S 3.12 | T 1.5 | H 2.12 | L 1.25
R21: P 4.98 | G 5.2 | C 3.45 | S 2.83 | A 4.78 | T 4.35 | N 5.27 | L 2.88 | Y 4.7 | I 3.99 | V 4.06 | M 4.38 | Q 5.19 | K 5
E1: Y 3.86 | D 2.33 | T 2.17 | C 2.5 | L 1.92 | G 2.5
G3: L 3.08 | S 1.82 | Q 2.16 | E 2.71 | P 1.24 | M 2.11 | T 2.14 | W 1.67 | N 1.63 | C 1.6 | D 1.88
F6: K 2.25 | T 4.93 | Y 2.38 | A 3.06 | S 2.41 | H 1.75 | P 3.15 | Q 2.17 | M 1.81 | D 4.59 | G 2.2
G13: L 2.52 | P 2.73 | R 1.35 | T 1.23 | K 2.03 | Q 1.16 | S 1.9 | V 2.38 | A 2.22 | N 1.55 | I 1.28
L16: V 2.98 | S 3.42 | M 1.65 | E 2.53 | T 2.18 | N 2.61 | W 1.03 | R 2.64 | D 3.34 | Q 2.72 | P 1.18 | Y 2.51 | C 2.79
K18: Q 1.87 | V 1.39 | E 1.49 | I 3.76 | C 2.11 | R 1.48 | F 2.3 | T 1.97 | H 1.24 | D 2.01
S15: P 2.16 | A 2.2 | L 2.95 | R 2.45 | H 2.1 | T 1.84 | G 2.42 | Y 2.91 | V 1.72 | D 1.87
Q14: N 2.02 | C 3.07 | S 2.5 | F 2.93 | V 2.4 | D 1.26 | R 2.51 | G 2.12 | A 1.83 | E 1.58
K22: G 2.15 | T 1.45 | D 2 | I 2.43 | F 2.77 | N 2.93
A2: P 2.55 | N 1.23 | S 1.82 | R 1.1 | D 3.92 | T 1.64 | Y 2.35 | H 1.15 | I 3
E12: K 1.69 | T 3.41
K19: C 2.4 | E 1.58 | T 3.08 | G 3.02 | A 3.83 | R 1.68 | P 1.07 | Q 2.05 | D 1.74
A8: H 1.34 | I 1.11 | L 1.5 | F 2.8 | Q 2.18 | N 1.41 | T 1.77
R17: S 2.73 | H 2.2 | M 2.25 | D 3 | T 2.03 | G 2.95 | N 3.46 | K 2.88 | L 2.18 | C 1.48
S10: K 1.4 | T 1.77 | P 2.83 | D 2.36 | A 1.38 | Q 3.48 | N 2.98 | I 1.72
G20: L 2.04 | Q 3.83 | W 1.81 | M 1.57 | N 1.82 | E 2.78 | A 3.91 | D 2.12 | V 2.53 | H 3.25 | S 2.12 | P 4.77 | K 4.63
P23: Y 3.01 | K 4.87 | W 5.5 | V 4.09 | M 2.85 | C 3.15 | N 2.62 | S 3.2 | Q 4.65 | I 3.95 | L 3.73
V7: H 1.37 | L 1.5 | E 2.91 | C 2.03 | N 2.18 | Y 1.12 | S 1.72 | F 1.9 | A 2.69 | T 1.18 | I 1.9 | G 1.39 | D 3.75
R5: P 3.69 | L 2.46 | Y 1.48 | N 2.6 | M 1.85 | A 3.01 | Q 3.3 | S 3.17 | D 4.49 | F 2.14 | E 3.18 | I 1.48 | T 3.2 | K 2.01

Variants of: B2
Assay: as above
Conditions: c terminus: a fixed tail appended

Protein stability index of substitutions, site by site:
V24: H 1.71 | G 2.37 | N 1.94 | T 2.29 | D 2.02 | Y 2.63 | F 1.83 | S 1.66 | M 2.29 | C 1.87 | Q 2.14 | L 1.65 | R 1.53 | K 2.5 | W 2.39 | I 1.79 | P 2.43 | E 2.16 | A 2.06
N23: I 2.05 | K 2.28 | V 2.23 | D 1.86 | M 2.02 | E 2.49 | T 2.07 | L 2.1 | H 1.69 | F 2.29 | C 1.29 | G 2.12 | Y 1.43 | S 2.28 | A 2.05 | R 2.01 | Q 1.57 | W 1.97
S22: W 1.91 | Y 1.67

Variants of: B3
Assay: as above
Conditions: c terminus: a fixed tail appended

Protein stability index, by site and new letter:
D1: R 1.62 | M 1.54 | T 1.86 | N 1.29 | S 2.29 | E 1.44 | K 2.23 | P 2.33 | A 1.54 | V 1.51 | Q 2.87 | I 1.33 | C 1.04 | G 1.26 | H 3.67 | L 2.59
D4: N 2.07 | L 1.75 | E 2.06 | T 2.48 | I 2.81 | S 1.86 | F 1.4 | C 1.64 | Y 2.86 | P 2.05 | G 1.45 | M 2.28 | K 2.17 | Q 3.18
P3: M 2.11 | D 1.36 | A 1.34 | S 1.99 | E 2 | C 2.14 | K 1.12 | H 1.8 | Y 1.4 | Q 1.93 | G 1.41 | I 2.22 | W 1.33 | T 1.73 | N 1.45
V2: H 1.67 | G 1.5 | S 2.19 | A 1.84 | Y 1.82 | D 1.78 | K 2.43 | N 2.7 | Q 1.59 | M 2.31 | F 1.69 | P 1.55 | E 2.93 | C 2.07 | I 1.78 | W 1.68 | T 2.57 | R 2.2
L5: F 2.15 | H 1.82 | G 1.65 | K 1.9 | E 3.6 | A 1.63 | I 2.54 | D 2.42 | C 1.83
